Like-named read-outs stand apart in the source and are kept apart here.

The values that follow come from publication PMC4459711.

Assay in all cases: X-ray crystallography
Series [1] has as its target T1, L1750 (LACV L protein, residues 1-1750) (La Crosse virus (strain …, UniProt A5HC98 1-1750)).
For series [2], the target named is T1, L1750 (LACV L protein, residues 1-1750). The source holds these as a separate data set.
For series [3] the target is unchanged. This is another data set of the same source.

T1 sequence (A5HC98 1-1750): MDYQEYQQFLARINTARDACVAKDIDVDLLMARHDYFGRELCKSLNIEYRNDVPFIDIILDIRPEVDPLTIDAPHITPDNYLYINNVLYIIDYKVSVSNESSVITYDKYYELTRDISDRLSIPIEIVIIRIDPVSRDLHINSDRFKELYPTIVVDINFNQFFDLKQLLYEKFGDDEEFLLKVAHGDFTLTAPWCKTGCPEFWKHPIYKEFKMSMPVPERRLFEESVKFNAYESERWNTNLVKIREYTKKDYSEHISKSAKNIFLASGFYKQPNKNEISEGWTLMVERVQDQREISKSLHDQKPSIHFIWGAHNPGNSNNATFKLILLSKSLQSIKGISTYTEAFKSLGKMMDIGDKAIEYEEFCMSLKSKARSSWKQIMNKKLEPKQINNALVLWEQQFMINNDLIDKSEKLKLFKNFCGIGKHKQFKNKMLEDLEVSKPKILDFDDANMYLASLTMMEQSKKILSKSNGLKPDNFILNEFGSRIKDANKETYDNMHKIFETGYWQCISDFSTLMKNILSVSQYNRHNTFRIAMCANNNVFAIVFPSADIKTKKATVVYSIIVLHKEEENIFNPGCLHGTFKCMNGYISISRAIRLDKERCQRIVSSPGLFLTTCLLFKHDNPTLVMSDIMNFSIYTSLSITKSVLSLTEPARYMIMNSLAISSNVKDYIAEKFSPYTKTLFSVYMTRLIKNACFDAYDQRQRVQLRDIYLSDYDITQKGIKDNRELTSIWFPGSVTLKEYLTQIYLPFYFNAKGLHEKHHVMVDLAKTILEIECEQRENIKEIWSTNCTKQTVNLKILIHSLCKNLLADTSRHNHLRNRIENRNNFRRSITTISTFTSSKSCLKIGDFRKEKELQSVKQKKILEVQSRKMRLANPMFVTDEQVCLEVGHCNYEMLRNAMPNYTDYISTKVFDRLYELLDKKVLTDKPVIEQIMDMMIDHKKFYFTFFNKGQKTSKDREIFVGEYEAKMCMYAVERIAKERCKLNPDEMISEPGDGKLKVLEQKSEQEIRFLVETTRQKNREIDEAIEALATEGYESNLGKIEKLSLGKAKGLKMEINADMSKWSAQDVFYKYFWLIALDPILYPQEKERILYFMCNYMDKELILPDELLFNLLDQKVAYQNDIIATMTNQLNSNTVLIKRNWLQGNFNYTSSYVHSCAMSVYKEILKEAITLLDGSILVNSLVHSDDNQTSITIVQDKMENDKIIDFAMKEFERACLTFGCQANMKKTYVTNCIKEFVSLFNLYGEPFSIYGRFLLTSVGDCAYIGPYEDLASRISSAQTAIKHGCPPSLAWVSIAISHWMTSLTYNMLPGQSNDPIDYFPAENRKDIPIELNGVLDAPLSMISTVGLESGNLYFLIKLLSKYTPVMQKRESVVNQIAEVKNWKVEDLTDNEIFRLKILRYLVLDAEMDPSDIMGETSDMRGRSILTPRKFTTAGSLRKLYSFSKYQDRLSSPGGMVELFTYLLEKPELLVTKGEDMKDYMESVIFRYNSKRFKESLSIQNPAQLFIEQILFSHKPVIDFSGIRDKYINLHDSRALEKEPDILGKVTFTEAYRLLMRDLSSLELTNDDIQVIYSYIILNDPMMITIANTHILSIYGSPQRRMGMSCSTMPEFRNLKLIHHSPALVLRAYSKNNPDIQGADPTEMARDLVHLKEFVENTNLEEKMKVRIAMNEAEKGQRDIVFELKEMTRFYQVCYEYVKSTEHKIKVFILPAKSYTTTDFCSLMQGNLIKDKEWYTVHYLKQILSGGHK

On to AGUAGUGUGCU (structured_RNA) [5' vRNA 1-11], for which the binding result in series [1] is given as “binds”.

B1: 3' vRNA 1-16 / 5' vRNA 9-16 partial duplex (mixed)
RNA 1: UUGGUAGUACACUACU
RNA 2: GCUACCAA
Take B1: the binding result in series [2] is given as “binds”.
With AGUAGUGUGC (structured_RNA, 5' phosphate) [5' vRNA 1-10 (hook)], the binding result in series [3] was “binds”.
